Data published in patent publication US20260347496 (published 2026).

T1: CD24 (cell surface) (human)
T1 chain: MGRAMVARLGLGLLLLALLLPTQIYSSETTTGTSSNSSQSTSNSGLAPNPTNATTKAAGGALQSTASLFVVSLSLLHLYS

T2: CD24 biotinylated (ACRO CD4-H82E9) (human, UniProt P25063)
T2 chain: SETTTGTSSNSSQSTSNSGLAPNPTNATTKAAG


Key:
CD24 (cell surface) [1] = target: T1, CD24 (cell surface); assay: FACS, NALM6
[2] = target: T2, CD24 biotinylated (ACRO CD4-H82E9); assay: SPR
CD24 (cell surface) [3] = target: T1, CD24 (cell surface); assay: FACS, MDA-MB-468

Row | Binder | EC50 (CD24 (cell surface) [1]) [µg/mL] | Kd [2] [nM] | EC50 (CD24 (cell surface) [3]) [µg/mL]
1 | huG14-301 (antibody, V domains shown) VH: EVQLVESGGGLVKPGGSLRLSCAASGLTFSNYWGNWVRQAPGKGLEWVALIRLYSDNYAIHYAESVKGRFTISRDDSKSTVYLQMNSLKTEDTAVYYCTTGTDNWGQGTTVTVSS VL: DVVMTQSPLSLPVTLGQPASISCKSSHSLLYSNKRTYLNWLQQRPGQSPRRLIYLVSKLDSGVPDRFSGSGSGTDFTLKISRVEAEDLGVYYCIQGTYFPYTFGQGTKLEIK | 0.256 | 7.58 | 0.256
2 | huG14-234 (antibody, V domains shown) VH: EVQLVESGGGLVKPGGSLRLSCAASGLTFSNYWGNWVRQAPGKGLEWVALIRLYSDNYAIHYAESVKGRFTISRDDSKSTVYLQMNSLKTEDTAVYYCTTGTDYWGQGTTVTVSS VL: DVVMTQSPLSLPVTPGRPASISCKSSHSLLYSNKKTYLNWLLQKPGQSPQRLIYLVSKLDSGVPDRFSGSGSGTDFTLKISRVEAEDLGVYYCIQGTYFPYTFGQGTKLEIK | 0.305 | 3.62 | 0.305
3 | huG14-235 (antibody, V domains shown) VH: EVQLVESGGGLVKPGGSLRLSCAASGLTFSNYWGNWVRQAPGKGLEWVALIRLYSDNYAIHYAESVKGRFTISRDDSKSTVYLQMNSLKTEDTAVYYCTTGTDNWGQGTTVTVSS VL: DVVMTQSPLSLYVTPGRPASISCKSSHSLLYSNKRTYLNWLLQKPGQSPQRLIYLVSKLDSGVPDRFSGSGSGTDFTLKISRVEAEDLGVYYCIQGTYFPYTFGQGTKLEIK | 0.184 | 2.69 | 0.184
